In patent US8846340B2, “Carbohydrate-binding modules of a new family” (Novozymes A/S, priority 2003, dated 2014):

Legend:
[1] = Competition binding assay with CBMX, Avicel and soluble carbohydrate; settings: for CBMX kept in solution by soluble carbohydrate (in words): competition with Avicel
Experimental: (§1) Affinity of CBMX for a number of soluble carbohydrates was tested in a competition assay by mixing 100 μl CBMX with both Avicel® (400 μl 50 mg/ml in 20 mM Tris, pH 7.5) and the soluble carbohydrate (dissolved in 500 μl 20 mM Tris, pH 7.5). As references, samples without CBMX or soluble carbohydrate added were used. If CBMX has affinity for the soluble carbohydrate it should be able to keep CBMX in solution which can be measured as increase in absorbance at 280 nm compared to sample without soluble carbohydrate added. After 4 hours incubation at room temperature with agitation, samples were centrifuged and absorbance at 280 nm was read using 200 μl supernatant in the well of a microtiter UV plate. Tested soluble carbohydrates were barley β-glucan (Megazyme, low viscosity), lichenan (Megazyme, Icelandic moss), CMC (carboxymethyl cellulose 7LF, Hercules, USA), Xyloglucan (Megazyme, amyloid, from tamarind seed), lupin galactan (Megazyme) and Locust bean gum (Sigma, G-0753).

[2] = as above; set-up: species or system tamarind; settings: xyloglucan
Experimental: as §1

[3] = as above; set-up: species or system Icelandic moss; settings: lichenan
Experimental: as §1

[4] = Binding of CBMX to PASC (A280 of supernatant); settings: 4 hours, room temperature; for A280: Absorbance at 280 nm of 200 μl supernatant, absorbance of buffer subtracted: 20 mM Tris pH 7.5
Experimental: A similar binding study was performed with PASO (Phosphoric Acid Swollen Cellulose: To 5 g Avicel® moistened with water 150 ml ice-cold 85 ortho-phosphoric acid is added. After 1 hour stirring on ice bath, 500 ml cold acetone is added. The suspension is filtered and washed, first with acetone and then with water). 50 μl purified CBMX was mixed with 500 μl 20 mM Tris, pH 7.5 containing varying amount of PASO (0-10 mg/ml) in an Eppendorf tube. Samples were incubated 4 hours at room temperature with agitation. After centrifugation, 200 μl supernatant was transferred to the well of a microtiter plate and absorbance read at 280 nm.

[5] = Competition binding assay with CBMX, Avicel and soluble carbohydrate; set-up: species or system lupin; settings: galactan
Experimental: as §1

[6] = as above; set-up: species or system barley; settings: beta-glucan
Experimental: as §1

[7] = Competition binding assay with CBMX and Avicel, references without soluble carbohydrate; settings: 4 hours
Experimental: as §1

[8] = Binding of CBMX to Avicel (A280 of supernatant); settings: for A280: Absorbance at 280 nm of 200 μl supernatant, absorbance of buffer and Avicel subtracted: 4 hours, room temperature, 20 mM Tris pH 7.5
Experimental: The carbohydrate-binding domain with affinity for Avicel® and purified as described in Example 2 (CBMX) was studied further. 50 μl purified CBMX was mixed with 500 μl 20 mM Tris, pH 7.5 containing varying amount of Avicel® (0-100 mg/ml) in an Eppendorf tube. After 4 hours incubation at room temperature with agitation, the samples were centrifuged. 200 μl supernatant was transferred to the well of a microtiter plate (Costar, UV plate) and absorbance read at 280 nm on a microtiter plate reader (SpectraMax® Plus, Molecular Devices).

Affinity of CBMX for soluble carbohydrate (in words) ([1]; CMC): affinity
CBMX kept in solution by soluble carbohydrate (in words) ([1]; CMC): keep almost all CBMX in solution
Affinity of CBMX for soluble carbohydrate (in words) ([1]; locust bean gum): affinity
CBMX kept in solution by soluble carbohydrate (in words) ([1]; locust bean gum): keeps the majority in solution
Affinity of CBMX for soluble carbohydrate (in words) [2]: to some extent
CBMX kept in solution by soluble carbohydrate (in words) ([2]; competition with Avicel): about half of the CBMX in solution
Affinity for PASC (in words) ([4]; 0-10 mg/ml): has affinity for PASO
A280: Absorbance at 280 nm of 200 μl supernatant, absorbance of buffer subtracted ([4]; PASC 0.0 mg/ml): 0.0753
A280: Absorbance at 280 nm of 200 μl supernatant, absorbance of buffer subtracted ([4]; PASC 0.625 mg/ml): 0.0682
A280: Absorbance at 280 nm of 200 μl supernatant, absorbance of buffer subtracted ([4]; PASC 1.25 mg/ml): 0.0710
A280: Absorbance at 280 nm of 200 μl supernatant, absorbance of buffer subtracted ([4]; PASC 2.5 mg/ml): 0.0618
A280: Absorbance at 280 nm of 200 μl supernatant, absorbance of buffer subtracted ([4]; PASC 5 mg/ml): 0.0512
A280: Absorbance at 280 nm of 200 μl supernatant, absorbance of buffer subtracted ([4]; PASC 10 mg/ml): 0.0471
Affinity of CBMX for soluble carbohydrate (in words) [5]: to some extent
CBMX kept in solution by soluble carbohydrate (in words) ([5]; competition with Avicel): about half of the CBMX in solution
Affinity of CBMX for soluble carbohydrate (in words) [6]: affinity
CBMX kept in solution by soluble carbohydrate (in words) ([6]; competition with Avicel): keep almost all CBMX in solution
Difference in A280 between samples with and without CBMX added ([7]; None - Only Avicel (20 mg/ml) and CBMX, no soluble carbohydrate): 0.018
Difference in A280 between samples with and without CBMX added ([7]; None - Only CBMX (no Avicel, no soluble carbohydrate)): 0.108
A280: Absorbance at 280 nm of 200 μl supernatant, absorbance of buffer and Avicel subtracted ([8]; Avicel 0.0 mg/ml): 0.0768
A280: Absorbance at 280 nm of 200 μl supernatant, absorbance of buffer and Avicel subtracted ([8]; Avicel 0.391 mg/ml): 0.0777
A280: Absorbance at 280 nm of 200 μl supernatant, absorbance of buffer and Avicel subtracted ([8]; Avicel 0.781 mg/ml): 0.0808
A280: Absorbance at 280 nm of 200 μl supernatant, absorbance of buffer and Avicel subtracted ([8]; Avicel 1.563 mg/ml): 0.0799
A280: Absorbance at 280 nm of 200 μl supernatant, absorbance of buffer and Avicel subtracted ([8]; Avicel 3.125 mg/ml): 0.0729
A280: Absorbance at 280 nm of 200 μl supernatant, absorbance of buffer and Avicel subtracted ([8]; Avicel 6.25 mg/ml): 0.0637
A280: Absorbance at 280 nm of 200 μl supernatant, absorbance of buffer and Avicel subtracted ([8]; Avicel 12.5 mg/ml): 0.0540
A280: Absorbance at 280 nm of 200 μl supernatant, absorbance of buffer and Avicel subtracted ([8]; Avicel 25 mg/ml): 0.0326
A280: Absorbance at 280 nm of 200 μl supernatant, absorbance of buffer and Avicel subtracted ([8]; Avicel 50 mg/ml): 0.0185
A280: Absorbance at 280 nm of 200 μl supernatant, absorbance of buffer and Avicel subtracted ([8]; Avicel 100 mg/ml): 0.0095
Binding of the protein to Avicel (in words) ([8]; highest concentrations of Avicel, 4 hours incubation): the large majority of the protein binds
Affinity for Avicel (in words) ([8]; summary statement): have affinity for Avicel®
B1: CBMX: Carbohydrate-binding module of Pseudoplectania nigrella GH61 enzyme (positions 34-174 of SEQ ID NO:2), expressed in Aspergillus oryzae, purified on Avicel (protein, listed as Pseudoplectania nigrella)
chain: SSGTSNDKAVASSSIAAVDPVTSSVVASVQVPNFTATDVPTFTATDIPTFTATDVPIFTKKPQQPSTLLTRTRTHASVSFVAKPSAFIPKPSASTIPSKPKTPEEVNKCLDAVNACITQAQSSIGGVVNFEPCESQRALCY
Affinity of CBMX for soluble carbohydrate (in words) [3]: no affinity for lichenan could be detected
CBMX kept in solution by soluble carbohydrate (in words) ([3]; competition with Avicel): does not result in any increase in CBMX in solution
